Measured values as given in the DeepSol protein solubility set.

Test: soluble on expression in E. coli; label from the status in PepcDB or PDB records

Sequence	soluble on expression in E. coli
SMGTRPRRKKHDYRIALFGGSQPQSCRYFNPKDYSWTDIRCPFEKRRDAACVFWDNVVYILGGSQLFPIKRMDCYNVVKDSWYSKLGPPTPRDSLAACAAEGKIYTSGGSEVGNSALYLFECYDTRTESWHTKPSMLTQRCSHGMVEANGLIYVCGGSLGNNVSGRVLNSCEVYDPATETWTELCPMIEARKNHGLVFVKDKIFAVGGQNGLGGLDNVEYYDIKLNEWKMVSPMPWKGVTVKCAAVGSIVYVLAGFQGVGRLGHILEYNTETDKWVANSKVRAFPVTSCLICVVDTCGANEETLET	soluble
MGSDKIHHHHHHMSVLCLDLGGTKLMLAQVEGKTLLDTWRYPVPADGNFEQLFDFLVTCIHSHLTPETYGISIGIPGMVDMQSGTLLEVLNIPALTATQLAQQLKNTFEMDVVVNNDANLFALGEAVLNSNQDMLGITLGTGVGAGVIFNGQLYSGKHCAAGEIGSLSYRDGIIEHYCSGQYFTTHHHMSGEHLYQKACEGDSQALQAFAHFGEHLAHMIAQTLLVYDPKDIVLGGSVSQSFPFFIEALKQKLQSLVYGPQLADLTISASQHHNAALIGAAQWFLQQQKSSDFN	not soluble
MVRIRRAGLEDLPGVARVLVDTWRATYRGVVPEAFLEGLSYEGQAERWAQRLKTPTWPGRLFVAESESGEVVGFAAFGPDRASGFPGYTAELWAIYVLPTWQRKGLGRALFHEGARLLQAEGYGRMLVWVLKENPKGRGFYEHLGGVLLGEREIELGGAKLWEVAYGFDLGGHKW	soluble
MAHHHHHHMPNDTLQVKLSQDSLFFPLPFTNATIDNVVQVKNMLPVVQGDPKANVISFKILSRVQNRYSVHPPVGFIGAGEHATIIFSFNPEHVKMAKNPEERELPTEATKDAIHVDFAVVDAPSVQTALAHWVPGSKETKASWEVVADASRFWKQRGQVKENSPITMRYKLRCVFATRNNVPDSLVMCMKEEGGCCKLITDGAAPLPRTRPPMTSSTQPQNTAPPEAPPHRYSESQRTTPTTRSPRSDACCTPCAIGPPGIFTMGPGAAAAASAPSASPPSSAPTQKSKTSAGITCGDITLKSIAEEVLNYKLSYRAVGVLLFLTLLCGLLDQSNLLTWLIAKQ	not soluble
MGSDKIHHHHHHACSWVDDDRSDCPTGCWLKLSYTYNMLNVDAVTTQVKDVTLFILDQEGNYIVREEVDSLTFHQNECTIQVPSLPQGDYTFLVWAGLADSLYRHTPTSLTLLRNEAGEQSEKLSSLFHGRLDNVHISGEYQVLALSLTKNTNILSCILQSQSAAPLDTDDFRLELTARNGCMDHRNTPTDSVSTCYLPFMQESANLEDIQVVHAGMNTLRLMENDDTRLRLIHQPDGKEIFDIPLTPYLLLSRNVETTYMPPQEYLDRQDRYNLIFFLSPTNDPQKPYICLQMQVNGWIIRINDAELDK	not soluble
MLVIKGVKAYTMSNIGVVEKANIIVKDGKIVDVTQELPPLEGKTVVDGEGLIALPGLIDPHTHLGVYSLEWEYGDHGTEKSDPITPHFKVIDGLDIFDPGFKDAIAGGVTTVSVEPGAPLSWASYEKTTIMPGQSAILKTNGRIIKEEAGIKIAVGGHVRKFLEELKLTPTTRMGIFAMIRMILHKAKEYLEKEDKQYDPKLEALATLLKNETVARVHAHLSRDMLSIIRLLKEFDIKNIIIEHGTEAYKISDVLKENGIPVILGPVIFPRRGVELRELSSKLAFQLYNSGMMFALTTDHPALPIQYLTLVAAACVGEGLPYEEALKSITINPAKILGIDRFVGSLEPGKDADIVLFDGDPLNPESKVMYTIIDGEVVYER	soluble
MSGVYDSQADIYLDARPTYPADWYSKLAALSHRHNLAWDAGTGNGQAAIGIAEHYERVVATDVSETMLNLGKPHPKVTYHHTPSSMTEDEMVDLIGGENSVDLITVATAVHWFDLPRFYAIANRLLRKPGGIIAVWSYNTDMVVNPEFDSVMTRFIAETLPYCKFPESQYFLDGYKTLPFPFESVGLGSEGKPMELEMKKTVSFEGFLRMLRSWSAVGAAKEKGVDLLSDNVVKELETAWGGYELVRTIVYKTFMLAGTVP	soluble
MAHHHHHHMHLKIVCLSDEVREMYKNHKTHHEGDSGLDLFIVKDEVLKPKSTTFVKLGIKAIALQYKSNYYYKCEKSENKKKDDDKSNIVNTSFLLFPRSSISKTPLRLANSIGLIDAGYRGEIIAALDNTSDQEYHIKKNDKLVQLVSFTGEPLSFELVEELDETSRGEGGFGSTSNNKY	soluble
